Several values for one entry are separate records, joined by “and”; a condition that tells them apart may be missing. Equal values may be shown once.
Experiments:
[1] = target: CS from a Myxococcota species (type III CS) (a Myxococcota species); assay: mass photometry
[2] = target: citrate synthase from M. sulfidovorans W150A (M. sulfidovorans); assay: mass photometry
[3] = target: non-mitochondrial CS (nmCS) from Ananas comosus (Ananas comosus); assay: mass photometry
[4] = target: non-mitochondrial CS (nmCS) from Ananas comosus (Ananas comosus); assay: mass photometry; remark: listed apart in the source
[5] = target: non-mitochondrial CS (nmCS) from Ananas comosus (Ananas comosus); assay: cryo-EM structure
[6] = target: non-mitochondrial CS (nmCS) from C. fasciculata (C. fasciculata); assay: mass photometry
[7] = target: non-mitochondrial CS (nmCS) from Chlamydomonas reinhardtii (Chlamydomonas reinhardtii); assay: mass photometry
[8] = target: type II CS from C. woesi (C. woesi); assay: mass photometry
[9] = target: type II CS from F. taffensis (F. taffensis); assay: mass photometry
[10] = target: type III CS from Cyanobium sp. PCC 7001 (Cyanobium sp. PCC 7001); assay: mass photometry
mass photometry = target: the molecule itself; assay: mass photometry

## CS from a Myxococcota species (type III CS) (enzyme)
[1]
  stoichiometry N: 2

## citrate synthase from M. sulfidovorans W150A (enzyme)
[2]
  stoichiometry N: 2

## non-mitochondrial CS (nmCS) from Ananas comosus (enzyme)
[3]
  stoichiometry N: 6 and 8
[4]
  stoichiometry N: 8
[5]
  stoichiometry N: 8

## non-mitochondrial CS (nmCS) from C. fasciculata (enzyme)
[6]
  stoichiometry N: 6

## non-mitochondrial CS (nmCS) from Chlamydomonas reinhardtii (enzyme)
[7]
  stoichiometry N: 2

## type II CS from C. woesi (enzyme)
[8]
  stoichiometry N: 2

## type II CS from F. taffensis (enzyme)
[9]
  stoichiometry N: 2

## type III CS from Cyanobium sp. PCC 7001 (enzyme)
[10]
  stoichiometry N: 2

B1: CS from A. comosus Δ487–513 (domain or fragment)
chain: MEGAFDHSALARARLAVLSGHLAAVSAAGGGASPLERSPVSVQEIPPPPRNLGGSLAVIDGRSGKKFEFKISDEGTVRATDFKKITTGKNDKGLKLYDPGYLNTAPVRSSICYIDGDEGILRYRGYPIEELAESSSYPEVAYLLMYGNLPSKSQLADWEFAISQHSAVPQGVLDIIQGMPHDAHPMGVLVCAMSALSVFHPDANPALRGQDLYKSKQLRDKQIVRILGKVPTIAAAAYLRLAGRPPVLPSNNFSYSENFLYMLDSLGNRSYKPNTRLARVLDILFILHAEHEMNCSTAAARHLASSGVDVFTALAGAVGALYGPLHGGANEAVLKMLNEIGTVENIPDFIEGVKNRKRKMSGFGHRVYKNYDPRAKVIRKLAEEVFSIVGRDPLIEVAIALEKAALSDEYFIKRKLYPNVDFYSGLIYRAMGFPTEFFPVLFAIPRMAGYLAHWRESLDDPDTKIMRPQQVYTGVWLRHYTPLQER
Mass photometry
  stoichiometry N: 2

B2: non-mitochondrial CS (nmCS) from P. olsenii (enzyme)
chain: MDRLNTVAAHVAPTLTITDNRSGKKIDVKVKDGTIRATDLKQLGIQTYDPGYMNTTCCVSRISFIDGNRGVLRYRGYPIEQLAQDSSFTEVAFLLQYGELPTRGQLTQWEQDLMRHSMLHQDVATLTSAFRYDAHPMGMFVSAMAALGTLHPETNPALTSQNIYKDKAVRNKEIARILGSATTLAAMAYRHRMGRPFNTPNSDLGYTENFLYMLDVSHEGTSYRPHPKLVKALDVLFVLHAEHELNCSTSAMRHLTSSNVDVYTACAAAAGALYGPRHGGANEAVLRMLERIGSIENVPTFVDKVKQRKELLMGFGHRVYKHYDPRATIVRKIAEDVFEICGREPLIEVAMDLERIALSDPYFKDRKLYPNVDFYSGLIYKAMGFPTDMFPILFTVPRLAGWLAHWSEWIDDPENRIYRPFQVYKGYDKRDYVQVDERSEKVHSKELTVKRSAFNRRRDASLQSAAADRSEYEWIKD
Mass photometry
  stoichiometry N: 6

— publication PMC11245102 (bioRxiv, 2024)
